From patent US20200247894A1 (Regeneron, published 2020)

T1: Human IL2Rγ extracellular domain expressed with a C-terminal myc-myc-hexahistidine tag (human)
T1 construct: also called hIL-2Rg-MMH; hIL-2RG-MMH
T1 chain: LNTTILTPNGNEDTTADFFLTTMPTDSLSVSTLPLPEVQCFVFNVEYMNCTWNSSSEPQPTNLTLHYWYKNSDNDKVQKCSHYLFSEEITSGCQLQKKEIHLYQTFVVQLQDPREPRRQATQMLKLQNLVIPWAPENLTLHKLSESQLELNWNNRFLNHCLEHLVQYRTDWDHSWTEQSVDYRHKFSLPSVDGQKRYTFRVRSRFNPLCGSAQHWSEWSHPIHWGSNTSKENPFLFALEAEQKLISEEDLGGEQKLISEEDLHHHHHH

T2: Macaca fascicularis IL2Rγ extracellular domain expressed with a C-terminal myc-myc-hexahistidine tag (Macaca fascicularis)
T2 construct: also called mfIL-2Rg-MMH; mfIL-2RG-MMH
T2 chain: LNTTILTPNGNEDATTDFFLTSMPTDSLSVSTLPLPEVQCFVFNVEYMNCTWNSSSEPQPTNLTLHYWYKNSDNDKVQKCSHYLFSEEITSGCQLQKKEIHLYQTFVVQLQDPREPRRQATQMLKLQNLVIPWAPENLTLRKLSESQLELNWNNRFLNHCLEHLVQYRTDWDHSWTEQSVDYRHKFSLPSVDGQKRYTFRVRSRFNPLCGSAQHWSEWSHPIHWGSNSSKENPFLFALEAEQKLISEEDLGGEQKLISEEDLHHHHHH


What was measured:
[1] = biological target: T1, Human IL2Rγ extracellular domain …; assay: SPR, captured mAb, 25C, dissociation pH 7.4
Procedure: (§1) The dissociation rate constant (kd) for binding of IL-2Rγ reagents to purified anti-IL2Rγ monoclonal antibodies was determined using a real-time surface plasmon resonance based Biacore 4000 biosensor platform. […] The CM5 Biacore sensor surface derivatized by amine coupling with monoclonal mouse anti-human Fc antibody (GE, Catalog # BR-1008-39) was used to capture anti-IL2Rγ monoclonal antibodies expressed with human IgG4 Fc. All the IL2Rγ reagents were expressed with a C-terminal myc-myc-hexahistidine tag (subsequently referred to with a -MMH suffix). […] The dissociation of bound IL-2Rg-MMH was performed in PBS-T-pH7.4 or PBS-T-pH6.0 running buffers for 6 minutes.
(§2) Dissociation rate constants (kd) in two running buffers were determined by fitting the real-time binding sensorgrams to a 1:1 binding model using Scrubber 2.0c curve-fitting software. Values of dissociation rate for […] mAb binding to hIL-2RG-MMH and mfIL-2RG-MMH at 25° C. and 37° C. in PBS-T-pH7.4 and PBS-T-pH6.0 is shown in Table 2-1 through Table 2-8.

[2] = biological target: T2, Macaca fascicularis IL2Rγ extracellular …; assay: SPR, captured mAb, 25C, dissociation pH 7.4
Procedure: as §1, §2

[3] = biological target: T1, Human IL2Rγ extracellular domain …; assay: SPR, captured mAb, 25C, dissociation pH 6.0
Procedure: as §1, §2

[4] = biological target: T2, Macaca fascicularis IL2Rγ extracellular …; assay: SPR, captured mAb, 25C, dissociation pH 6.0
Procedure: as §1, §2

[5] = biological target: T1, Human IL2Rγ extracellular domain …; assay: SPR, captured mAb, 37C, dissociation pH 7.4
Procedure: as §1, §2

[6] = biological target: T1, Human IL2Rγ extracellular domain …; assay: SPR, captured mAb, 37C, dissociation pH 6.0
Procedure: as §1, §2

100 nM Ag Bound (RU) [1] [RU] | koff [1] [s⁻¹] | t1/2 [1] [min] | 100 nM Ag Bound (RU) [2] [RU] | koff [2] [s⁻¹] | t1/2 [2] [min] | 100 nM Ag Bound (RU) [3] [RU] | koff [3] [s⁻¹] | t1/2 [3] [min] | 100 nM Ag Bound (RU) [4] [RU] | koff [4] [s⁻¹] | t1/2 [4] [min] | 100 nM Ag Bound (RU) [5] [RU] | koff [5] [s⁻¹] | t1/2 [5] [min] | 100 nM Ag Bound (RU) [6] [RU] | koff [6] [s⁻¹] | t1/2 [6] [min] | Binder
36 | 0.00163 | 7 | 38 | 0.000984 | 12 | 30 | 0.00499 | 2.3 | 30 | 0.0032 | 3.6 | 23 | 0.00982 | 1.2 | 19 | 0.0239 | 0.5 | H4H12927P2 (antibody, human IgG4 S228P, kappa, V domains shown, anti-IL2Rgamma mAb expressed with human IgG4 Fc) VH: EVQLVESGGGVVRPGGSLRLSCATSGFTFDDYGMSWVRQVPGKGLEWVSSVNRNGGTTDYADSVKGRFTISRDNAKRSLFLQMNSLRAEDTALYHCATGELFFDYWGQGTLVTVSS VL: not shown
121 | 0.000596 | 19 | 125 | 0.000481 | 24 | 129 | 0.00136 | 8 | 128 | 0.00116 | 10 | 139 | 0.00111 | 10 | 141 | 0.00246 | 5 | H4H12871P (antibody, human IgG4 S228P, kappa, V domains shown, anti-IL2Rgamma mAb expressed with human IgG4 Fc; also called REGN9434) VH: QVQLQESGPGLVKPSQTLSLTCTVSGGSITSGGYYWSWIRQYPGQGLEWIGYIYYSGKTYYNPSFTSRITISVDTSKKQFSLKMSSVTAADTAVYYCARAGFTSSNGWFDPWGQGTLVTVSS VL: DIQMTQSPSSLSASVGDRVTITCRASQNIRSYLNWYQQKPGKAPKLLIYSASSLQSGVPSRFSGSGSGTDFTLTISSLQPEDFPTYYCQQTYSSPWTFGPGTKVEIKR
82 | 0.000139 | 83 | 94 | 0.000179 | 65 | 93 | 0.000417 | 28 | 96 | 0.000439 | 26 | 110 | 0.000599 | 19 | 120 | 0.00148 | 8 | H4H13538P (antibody, human IgG4 S228P, kappa, V domains shown, anti-IL2Rgamma mAb expressed with human IgG4 Fc) VH: EVQLVESGGGLVQPGGSLGLSCAASGFTFSNYAMSWVRQAPGKGLEWVSAVSGGGGGTYYADSVKGRFTISRDNSKNTVLLQMNSLRAEDTAVYYCARGRTGGLDYWGPGTLVTVSS VL: DVVMTQSPLSLPVIFGQPASISCRSSQSLVDSDGNTYLNWLQQRPGQSPRRLIYEVSNRDSGVPDRFSGSGSGTDFTLTISRVEAEDVGIYYCMQGTRWPPTFGGGTKVEIKR
72 | 0.000162 | 71 | 73 | 0.000164 | 70 | 66 | 0.000724 | 16 | 64 | 0.000729 | 16 | 99 | 0.000572 | 20 | 91 | 0.00261 | 4 | H4H12874P (antibody, human IgG4 S228P, kappa, V domains shown, anti-IL2Rgamma mAb expressed with human IgG4 Fc) VH: QVQLVESGGGVVQPGRSLRLSCAASGFNFRNFGMHWVRQAPGKGLEWVAGILYDGSSKYYADSVKDRFTISRDNSKNTLFLQMNSLRAEDTAMYYCAKEEDTAMVPFDSWGPGTLVTVSS VL: DIQLTQSPSFLSASVGDRVTITCWASQGISSYLAWYQQKPGKAPTLLIYAASTLQSGVPSRFSGSGSGTEFTLTISSLQPEDFASYYCQQLKSYPLTFGGGTKVEIKR

More lines, now with the values behind:

Binder | 100 nM Ag Bound (RU) [1] [RU] | koff [1] [s⁻¹] | t1/2 [1] [min] | 100 nM Ag Bound (RU) [2] [RU] | koff [2] [s⁻¹] | t1/2 [2] [min] | 100 nM Ag Bound (RU) [3] [RU] | koff [3] [s⁻¹] | t1/2 [3] [min] | 100 nM Ag Bound (RU) [4] [RU] | koff [4] [s⁻¹] | t1/2 [4] [min] | 100 nM Ag Bound (RU) [5] [RU] | koff [5] [s⁻¹] | t1/2 [5] [min] | 100 nM Ag Bound (RU) [6] [RU] | koff [6] [s⁻¹] | t1/2 [6] [min]
H4H12863P (antibody, human IgG4 S228P, kappa, V domains shown, anti-IL2Rgamma mAb expressed with human IgG4 Fc) VH: QVQLVESGGGVVQPGRSLRLSCTASGFTFRSYDMYWVRQAPGKGLEWVSVITYDGNNKYYADSVKGRFTISRDNSKNTLFLQMSSLRPEDTAVYYCAKRGLIWVGESFDYWGQGTLVTVSS VL: DIQMTQSPSTLSASVGDRVTITCRASQSINSWLAWYQQKPGKAPNLLIYKASSLESGVPSRFSGSGSGTEFTLTISSLQPDDFATYYCQQYKSYSWTFGQGTKVEIKR | 151 | 0.000172 | 67 | 155 | 0.000194 | 59 | 116 | 0.000762 | 15 | 118 | 0.000761 | 15 | 176 | 0.000672 | 17 | 145 | 0.00226 | 5
H4H12913P2 (antibody, human IgG4 S228P, kappa, V domains shown, anti-IL2Rgamma mAb expressed with human IgG4 Fc) VH: EVQLVESGGGVVRPGGSLRLSCAASGFTFDDYGMSWVRQAPGKGLEWISSINRNGGSADYADSVKGRFTISRDNAKNSLFLQMSSLRAEDTALYHCASGEFRFDYWGQGTLVTVSS VL: not shown | 56 | 0.000303 | 38 | 57 | 0.000272 | 43 | 43 | 0.00105 | 11 | 44 | 0.000992 | 12 | 82 | 0.00116 | 10 | 59 | 0.00383 | 3
H4H12858P (antibody, human IgG4 S228P, kappa, V domains shown, anti-IL2Rgamma mAb expressed with human IgG4 Fc; also called REGN9433) VH: EVQLVESGGDLVQPGGSLRLSCTASGFIFRNYAMNWVRQAPGKGLEWLSGILGSNDNTYYVDSVKGRFTISRDNSRNTLYLQMNSLRAEDSAVYYCAKGDAGGFDYWGQGTLVTVSS VL: DVVMTQSPLSLPVILGQPASISCRSSQSLVSSDGNTYLNWFQQRPGQSPRRLIYKVSNRDSGVPDRFSGSGSGTDFTLKISRVEAEDVGAYYCMQGSYWPPTFGQGTKLEIKR | 111 | 0.000184 | 63 | 111 | 0.000171 | 68 | 103 | 0.000377 | 31 | 100 | 0.000385 | 30 | 141 | 0.000661 | 17 | 136 | 0.00172 | 7
H4H12859P (antibody, human IgG4 S228P, kappa, V domains shown, anti-IL2Rgamma mAb expressed with human IgG4 Fc) VH: QVQLVQSGAEVKKPGASVRVSCKASGYTFTDYDIHWVRQAPGHGLEWMGWINPNSGGTNYAQKFQGRVTMTRDTSISTVYMDLSRLRSDDTAVYYCARADYSSSYYYYGMDVWGQGTTVTVSS VL: not shown | 54 | 0.00111 | 10 | 51 | 0.000871 | 13 | 39 | 0.00503 | 2.3 | 37 | 0.00413 | 2.8 | 55 | 0.00454 | 2.5 | 36 | 0.0132 | 0.9
H4H12922P2 (antibody, human IgG4 S228P, kappa, V domains shown, anti-IL2Rgamma mAb expressed with human IgG4 Fc; also called REGN7256) VH: QVQLVESGGGVVKPGGSLRLSCAASGFTFSNSGIHWVRQAPGKGLEWVALISYAGSNKYYADSVKGRFTISRDNSKNTLSLQMNSLRAEDTAVYYCAKEVWTGTYDSFDMWGRGTMVTVSS VL: not shown | 164 | 0.000204 | 57 | 168 | 0.000191 | 61 | 126 | 0.00118 | 10 | 129 | 0.00111 | 10 | 184 | 0.000773 | 15 | 147 | 0.00374 | 3
